Results reported in IntAct's records for PubMed 21209940.

B1: Myoblast determination protein 1 (Mus musculus), P10085 (parent)
chain: MELLSPPLRDIDLTGPDGSLCSFETADDFYDDPCFDSPDLRFFEDLDPRLVHMGALLKPEEHAHFPTAVHPGPGAREDEHVRAPSGHHQAGRCLLWACKACKRKTTNADRRKAATMRERRRLSKVNEAFETLKRCTSSNPNQRLPKVEILRNAIRYIEGLQALLRDQDAAPPGAAAFYAPGPLPPGRGSEHYSGDSDASSPRSNCSDGMMDYSGPPSGPRRQNGYDTAYYSEAARESRPGKSAAVSSLDCLSSIVERISTDSPAAPALLLADAPPESPPGPPEGASLSDTEQGTQTPSPDAAPQCPAGSNPNAIYQVL
partner: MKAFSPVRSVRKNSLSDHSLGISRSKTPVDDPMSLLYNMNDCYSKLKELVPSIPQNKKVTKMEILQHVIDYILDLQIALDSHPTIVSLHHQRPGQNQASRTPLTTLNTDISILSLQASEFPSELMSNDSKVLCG
B2: DNA-binding protein inhibitor ID-2 (Mus musculus), P41136 (parent)
chain: B1 partner

Variants of: B1
Details: with id2_mouse Id2, P41136

| Variant | effect of a mutation on the interaction |
| --- | --- |
| I149K | disrupting interaction |
| L150K | decreasing interaction |

Results, then the variant that gave them:

| effect of a mutation on the interaction | Variant |
| --- | --- |
| decreasing interaction | L160K |
| disrupting interaction | I157K |
| decreasing interaction | Q161K |

Variants of: B2
Details: with myod1_mouse Myod1, P10085

| effect of a mutation on the interaction | Variant |
| --- | --- |
| decreasing interaction | V86K |
| decreasing interaction | L124K |
